In US12636342B2, “TARS derived from Akkermansia muciniphila or fragment thereof, and use thereof” (KOREA RESEARCH INSTITUTE OF BIOSCIENCE AND BIOTECHNOLOGY, priority 2020, dated 2026):
Entries after “also recorded” stand apart in the source; their conditions may differ.

B1: ΔU1AmTARS: AmTARS mutant with deletion of unique region U1 (residues 99-113); construct SEQ ID NO 7 (protein)
chain: MSEHKERKTLEERQQMSDLERLRHSCAHVLATAICRLWPDAQLAGGPAVDNGFYYDVELDHRISTEDFERIEEEMKKVVKENQVFQKEVISRADAMKMSRFKIDLLNDIPEDEEISLYRNGDFTDLCAGPHVGRTGNCKAFKIMSVASAFYKGDKNRPMLQRIYGTCFPNRTQLDEHLERLEEARRRDHRKLGRELGLFCIDESVGQGLILWKPKGALIRRSLQDFITEELDKLGYSQVYTPNIGKLDLYRTSGHFPYYQESQYAPIPERDAMEKLSQEGASCAELFNGLATGTIEGYMLKPMNCPHHIKIYANDAHSYRDLPVRLAEFGTVYRWEQSGELGGMTRVRGFTQDDAHIFCTPDQLAGEIRQCLGIVKTIFGTLGMTDYRVRLSMRDPESDKYVGSPENWDKAEQALREAAEWLGADYSEEAGEAAFYGPKIDFIVRDAIGREWQLGTVQVDYNLPERFDLHYTGADNKPHRPVMVHRAPFGSMERFTGLLIEHFEGKFPTWLSPEQVRVLPISDKVTDVAAAHRTALAARGVRVTVDETPDKIGAKIRNARLDRVPYMLVLGQREAEDGTVSVRHRDKGDLGAMPFEQFADLVAREIAERHISPVI
modifications: misc_feature 1..1848 Akkermansia muciniphila TARS_del_Functional region 1
B2: ΔU2AmTARS: AmTARS mutant with deletion of unique region U2 (residues 290-312); construct SEQ ID NO 8 (protein)
chain: MSEHKERKTLEERQQMSDLERLRHSCAHVLATAICRLWPDAQLAGGPAVDNGFYYDVELDHRISTEDFERIEEEMKKVVKENQVFQKEVISRADAMKMAESGELGALGPRSEPSRFKIDLLNDIPEDEEISLYRNGDFTDLCAGPHVGRTGNCKAFKIMSVASAFYKGDKNRPMLQRIYGTCFPNRTQLDEHLERLEEARRRDHRKLGRELGLFCIDESVGQGLILWKPKGALIRRSLQDFITEELDKLGYSQVYTPNIGKLDLYRTSGHFPYYQESQYAPIPERDAMEYMLKPMNCPHHIKIYANDAHSYRDLPVRLAEFGTVYRWEQSGELGGMTRVRGFTQDDAHIFCTPDQLAGEIRQCLGIVKTIFGTLGMTDYRVRLSMRDPESDKYVGSPENWDKAEQALREAAEWLGADYSEEAGEAAFYGPKIDFIVRDAIGREWQLGTVQVDYNLPERFDLHYTGADNKPHRPVMVHRAPFGSMERFTGLLIEHFEGKFPTWLSPEQVRVLPISDKVTDVAAAHRTALAARGVRVTVDETPDKIGAKIRNARLDRVPYMLVLGQREAEDGTVSVRHRDKGDLGAMPFEQFADLVAREIAERHISPVI
modifications: misc_feature 1..1824 Akkermansia muciniphila TARS_del_Functional region 2

How the values were obtained:
BMDMs [1] = experiment: Global gene expression profiling (RNA sequencing) of BMDMs; type: cell-based, mouse
Protocol: (A-E) Global gene expression analysis. Total mRNA from BMDMs treated with either AmTARS (0.5 μM) or Pam3 (10 ng ml-1) for 1 or 3 h was isolated and analyzed by RNA sequencing (A). Principle components analysis (PCA) of the gene expression profiles for each sample (B). Hierarchical clustering of gene expression profiles from each sample identified cluster 3 and 4 (C). Gene set enrichment analysis (GSEA) of clusters 3 and 4 with respect to terms related to inflammation (D). […] (F) Overview of the experimental procedures for zebrafish. The yolk of Tg (NFκB:EGFP) transgenic zebrafish larvae (3 dpf) was injected with PBS or AmTARS. Injected larvae were treated at 3 and 5 dpf with 0.5% DSS for 24 h, with a washing period with fresh water for 24 h in between. Sample collection and analysis of Tg (NFκB:EGFP)-based EGFP intensity were conducted at 6 dpf. (G) Representative confocal images showing NF-κB signaling in the mid-distal intestines of PBS- or AmTARS-injected larvae with or without DSS treatment. White dashed lines denote the boundaries of the intestines (based on merged DIC bright field images). (H) Bar graph comparing the fluorescence intensity of the mid-distal intestines of PBS- or AmTARS-injected larvae treated (or not) with DSS (n=32 per PBS group and n=35 per DSS group). (I) Schematic model of the role of AmTARS in maintaining immune homeostasis via TLR2-mediated anti-inflammatory signaling pathways. Data shown in (A-C) are representative and repeated twice. Data shown in (H) are representative of three independent experiments, each similar results (mean±SEM). P-values were calculated by unpaired and two-tailed Student's t-test.
We next performed global gene expression profiling of BMDMs treated with AmTARS or Pam3 for 1 or 3 h (FIG. 32A). […] Subsets of genes showing different expression patterns between AmTARS and Pam3 were classified into six clusters by hierarchical clustering analysis (FIGS. 33A and 33B). The gene expression pattern at 3 h was particularly different for clusters 3 and 4 (FIGS. 32C, 33A, and 33B). […]

BMDMs [2] = experiment: Immunoblotting of AmTARS/TLR2-induced signaling molecules in BMDMs; type: cell-based, mouse; conditions: BMDMs stimulated for 30 min, 0.5 μM
Protocol: (A and B) Analysis of key molecules that inhibit the MAPK and PI3K/AKT signaling pathways. IL-10 produced by BMDMs pre-treated with inhibitors of ERK (PD98059, […]), p38 (SB203580, […]), MSK1/2 (SB747651A, 10 μM), CREB (666-15, 1 μM), PI3K (Wortmannin, 10 μM), and AKT1/2 (AKT1/2, 10 μM) for 1 h before treatment with either PBS or AmTARS for 24 h (n=6 per group) (A). Flow cytometry analysis of M2 macrophages in BMDMs pre-treated for 1 h with the indicated kinase inhibitors, before treatment with either PBS or AmTARS for 24 h (n=3 per group) (B). (C and D) Western blot analysis of MAPK signaling molecules in lysates of BMDMs (C) or THP1 cells (D) treated for different times with 0.5 μM AmTARS. (E) Western blot analysis of lysates of BMDMs pre-treated with α-IgG (Isotype, 1 μg ml-1) or α-TLR2 (1 μg ml-1) for 1 h before treatment with PBS, AmTARS (0.5 μM), or Pam3 (0.5 μM) for 30 min. (F and G) Western blot analysis of PI3K/AKT signaling molecules in lysates of BMDMs (F) or THP1 cells (G) treated with 0.5 μM AmTARS. (H) AmTARS activates both TLR2/1- and TLR2/6-mediated signaling. Activation of AKT, ERK, and CREB was measured by western blot analysis of lysates of THP1 cells pre-treated with α-IgG, α-TLR1, α-TLR2, or α-TLR6 (1 μg ml-1) for 1 h before treatment for 30 min with PBS or AmTARS (0.5 µM). Data shown in (A and B) are representative of three independent experiments, each with similar results (mean±SEM). P-values were calculated using an unpaired two-tailed Student's t-test. Data shown in (C-H) are representative and repeated at least three times.
Subsequently, we conducted immunoblotting assays to measure the time-dependent activation of AmTARS/TLR2-induced signaling molecules in both BMDMs and THP1 cells. AmTARS rapidly activated ERK, p38, and MSK1/2 within 15 min and, subsequently, phosphorylation of CREB at Ser133 (which is essential for IL-10 production) within 30 min in BMDMs (FIG. 31C) and THP1 cells (FIG. 31D). We then compared AmTARS-triggered TLR2 signaling with typical ligand-triggered signaling using Pam3CSK4 (the synthetic canonical TLR2/1 agonist, referred to hereafter as Pam3) in BMDMs stimulated for 30 min. […] By contrast, activation of NF-κB was greater in Pam3-treated BMDMs than in AmTARS-treated BMDMs (FIG. 31E).

Raw 264.7 cells = experiment: ELISA of immune cytokine secretion in LPS-treated Raw 264.7 cells; type: cell-based, mouse; conditions: Raw 264.7, LPS, 24 h
Protocol: Next, to determine whether the regulation of immune cytokine secretion by AmTARS in an inflammatory environment was induced by the two functional sites, the mouse-derived immune cell Raw 264.7 cells were treated with LPS to induce an immune response by the method as in Example 3, and treated with AmTARS, ΔU1AmTARS, and ΔU2AmTARS for 24 h separately to obtain cell cultures. The obtained cell cultures were analyzed for Immune cytokine secretion by way of the same method as in Example 2.

[3] = system: mouse bone marrow-derived macrophages (BMDMs); experiment: ELISA of immune cytokine secretion in BMDMs under normal conditions; type: cell-based; conditions: normal (non-inflammatory) conditions, 24 h
Protocol: Specifically, mouse bone marrow-derived macrophages (BMDMs) as mouse-derived immune cells were extracted from the mouse thighbone and shinbone, and then cultured in DMEM containing 10% fetal bovine serum (FBS) and antibiotics. Human macrophages (THP1) as human-derived immune cells were cultured in RPMI media containing 10% FBS and antibiotics.
The cultured cells were treated with AmTARS at 0.1 μM, 0.2 μM, and 0.5 μM for 24 h to obtain cell cultures. For cell removal, the media were centrifuged at 500×g for 10 min to obtain supernatants, which were then analyzed using an ELISA set (mouse interleukin (IL)-6, mouse IL-10, mouse tumor necrosis factor (TNF)-α, human IL-6, human IL-10, human TNF-α; BD Biosciences) to investigate the secretion of mouse- and human-derived immune cytokines. […]

[4] = Aminoacylation reaction (malachite green phosphate assay); type: biochemical; conditions: L-threonine, ATP, 30 min, free Pi at 620 nm
Protocol: TARS is an […] involved in protein synthesis, and the domain and site involved in its function are well known. The constructed deletion mutants were confirmed to have deletions of parts irrelevant to the function, but the aminoacylation reaction experiment was conducted to determine whether the deletion mutants performed the intrinsic functions thereof appropriately.
Specifically, a 2× reaction solution (100 mM Tris-HCl (pH 7.5), 20 mM MgCl2, 200 mM NaCl, 200 mM KCl, 2 mM DTT, 500 μM ATP, and 5 mM L-threonine) was prepared, and 25 μL of a reaction solution, 20 μL of distilled water, and 5 μL of protein were added to make a final 50 μL volume, followed by incubation for 30 min. Thereafter, a reaction was conducted using a malachite green phosphate assay kit (Bioassay Systems) for 30 min, and the free monophosphate group (Pi) was measured at a wavelength of 620 nm.

[5] = system: mouse model of dextran sulfate sodium (DSS)-induced colitis; experiment: DSS-induced colitis (inflammatory bowel disease) mouse model, intraperitoneal administration; type: in vivo; conditions: inflammatory bowel disease mouse model; for distribution of B cells in the colon: normal mice
Protocol: We evaluated the anti-inflammatory function of AmTARS in a mouse model of dextran sulfate sodium (DSS)-induced colitis. First, we assessed dose-dependent responses (i.e., changes in body weight and colon length) to intraperitoneal (i.p.) administration of AmTARS (0.05-0.4 mg/kg) once every other day for 10 days (FIG. 10A).
The disease activity score was calculated by adding up scores ranging from 0 to 4 points for each item of bloody stool, diarrhea, and weight loss, and the epithelial damage score was calculated by assigning 0 to 4 points according to the degree of colon tissue damage.
Next, to measure IgA, mouse feces were collected and diluted in PBS containing a protein inhibitor, and then a supernatant with impurities removed was obtained, and 100 μL was placed in each well of a 96-well plate to perform protein coating at 4° C. for 2 h. The plate was washed three times with a washing solution (50 mM Tris, 0.2% in PBS) and then incubated with 100 μL of blocking solution at room temperature for 1-2 h, followed by washing. HRP conjugated IgA antibody (1:30000) was added and then incubated at room temperature for 1 h, followed by washing. Thereafter, 100 μL of a substrate solution was added, followed by incubation for 30 min, and then 50 μL of a stop solution was added, followed by measurement at 405-450 nm by an ELISA reader. […]

Row | Molecule | transcription factors associated with up-regulated genes (BMDMs [1]; GSEA (Enrichr)) | gene set enrichment analysis, inflammatory response-related genes (BMDMs [1]; Pam3 compared with AmTARS) | activation of NF-κB, Pam3 versus AmTARS (BMDMs [2]) | secretion of IL-6 (Raw 264.7 cells) | secretion of IL-10 (Raw 264.7 cells) | secretion of TNF-α (Raw 264.7 cells) | secretion/production of IL-10 [3] | aminoacylation reaction / enzymatic activity [4] | amount of IgG increased by an inflammatory bowel disease [5] | distribution of B cells in the colon [5]
1 | Pam3CSK4 | up-regulation of inflammation-related transcription factors such as NF-κB, RELA, and TFAP2A | significant induction of inflammatory response-related genes | greater | – | – | – | – | – | – | –
2 | B1 | – | – | – | no effect | no effect | no effect | abolished the IL-10 production | an aminoacylation reaction was shown; also recorded: Neither mutant protein was different from the wild-type | did not show an effect of reducing the amount of IgG | reduced the efficacy of increasing B cells in the colon
3 | B2 | – | – | – | no effect | no effect | no effect | abolished the IL-10 production | an aminoacylation reaction was shown; also recorded: Neither mutant protein was different from the wild-type | did not show an effect of reducing the amount of IgG | reduced the efficacy of increasing B cells in the colon
